Target: T1, bovine thyroglobulin (bovine, UniProt P01267 20-2769, carries alpha-gal (galactose-alpha-1,3-galactose) glycans)
T1 construct: Antigen coated on ELISA plates, blotted, or on the ImmunoCAP o215 solid phase; It is recognised through its alpha-gal glycans; also called BTG; Thyroglobulin, bovine
Experiment: direct ELISA, bovine thyroglobulin coated at 25 ug/ml, purified IgE dilution series
Source text: Relative fluorescence intensity or optical density was determination on a Molecular Devices plate reader.
By performing EC₅₀ assays using purified IgE mAb, rough comparisons between mAb binding can be made.

T1 sequence (P01267 20-2769 limits assumed): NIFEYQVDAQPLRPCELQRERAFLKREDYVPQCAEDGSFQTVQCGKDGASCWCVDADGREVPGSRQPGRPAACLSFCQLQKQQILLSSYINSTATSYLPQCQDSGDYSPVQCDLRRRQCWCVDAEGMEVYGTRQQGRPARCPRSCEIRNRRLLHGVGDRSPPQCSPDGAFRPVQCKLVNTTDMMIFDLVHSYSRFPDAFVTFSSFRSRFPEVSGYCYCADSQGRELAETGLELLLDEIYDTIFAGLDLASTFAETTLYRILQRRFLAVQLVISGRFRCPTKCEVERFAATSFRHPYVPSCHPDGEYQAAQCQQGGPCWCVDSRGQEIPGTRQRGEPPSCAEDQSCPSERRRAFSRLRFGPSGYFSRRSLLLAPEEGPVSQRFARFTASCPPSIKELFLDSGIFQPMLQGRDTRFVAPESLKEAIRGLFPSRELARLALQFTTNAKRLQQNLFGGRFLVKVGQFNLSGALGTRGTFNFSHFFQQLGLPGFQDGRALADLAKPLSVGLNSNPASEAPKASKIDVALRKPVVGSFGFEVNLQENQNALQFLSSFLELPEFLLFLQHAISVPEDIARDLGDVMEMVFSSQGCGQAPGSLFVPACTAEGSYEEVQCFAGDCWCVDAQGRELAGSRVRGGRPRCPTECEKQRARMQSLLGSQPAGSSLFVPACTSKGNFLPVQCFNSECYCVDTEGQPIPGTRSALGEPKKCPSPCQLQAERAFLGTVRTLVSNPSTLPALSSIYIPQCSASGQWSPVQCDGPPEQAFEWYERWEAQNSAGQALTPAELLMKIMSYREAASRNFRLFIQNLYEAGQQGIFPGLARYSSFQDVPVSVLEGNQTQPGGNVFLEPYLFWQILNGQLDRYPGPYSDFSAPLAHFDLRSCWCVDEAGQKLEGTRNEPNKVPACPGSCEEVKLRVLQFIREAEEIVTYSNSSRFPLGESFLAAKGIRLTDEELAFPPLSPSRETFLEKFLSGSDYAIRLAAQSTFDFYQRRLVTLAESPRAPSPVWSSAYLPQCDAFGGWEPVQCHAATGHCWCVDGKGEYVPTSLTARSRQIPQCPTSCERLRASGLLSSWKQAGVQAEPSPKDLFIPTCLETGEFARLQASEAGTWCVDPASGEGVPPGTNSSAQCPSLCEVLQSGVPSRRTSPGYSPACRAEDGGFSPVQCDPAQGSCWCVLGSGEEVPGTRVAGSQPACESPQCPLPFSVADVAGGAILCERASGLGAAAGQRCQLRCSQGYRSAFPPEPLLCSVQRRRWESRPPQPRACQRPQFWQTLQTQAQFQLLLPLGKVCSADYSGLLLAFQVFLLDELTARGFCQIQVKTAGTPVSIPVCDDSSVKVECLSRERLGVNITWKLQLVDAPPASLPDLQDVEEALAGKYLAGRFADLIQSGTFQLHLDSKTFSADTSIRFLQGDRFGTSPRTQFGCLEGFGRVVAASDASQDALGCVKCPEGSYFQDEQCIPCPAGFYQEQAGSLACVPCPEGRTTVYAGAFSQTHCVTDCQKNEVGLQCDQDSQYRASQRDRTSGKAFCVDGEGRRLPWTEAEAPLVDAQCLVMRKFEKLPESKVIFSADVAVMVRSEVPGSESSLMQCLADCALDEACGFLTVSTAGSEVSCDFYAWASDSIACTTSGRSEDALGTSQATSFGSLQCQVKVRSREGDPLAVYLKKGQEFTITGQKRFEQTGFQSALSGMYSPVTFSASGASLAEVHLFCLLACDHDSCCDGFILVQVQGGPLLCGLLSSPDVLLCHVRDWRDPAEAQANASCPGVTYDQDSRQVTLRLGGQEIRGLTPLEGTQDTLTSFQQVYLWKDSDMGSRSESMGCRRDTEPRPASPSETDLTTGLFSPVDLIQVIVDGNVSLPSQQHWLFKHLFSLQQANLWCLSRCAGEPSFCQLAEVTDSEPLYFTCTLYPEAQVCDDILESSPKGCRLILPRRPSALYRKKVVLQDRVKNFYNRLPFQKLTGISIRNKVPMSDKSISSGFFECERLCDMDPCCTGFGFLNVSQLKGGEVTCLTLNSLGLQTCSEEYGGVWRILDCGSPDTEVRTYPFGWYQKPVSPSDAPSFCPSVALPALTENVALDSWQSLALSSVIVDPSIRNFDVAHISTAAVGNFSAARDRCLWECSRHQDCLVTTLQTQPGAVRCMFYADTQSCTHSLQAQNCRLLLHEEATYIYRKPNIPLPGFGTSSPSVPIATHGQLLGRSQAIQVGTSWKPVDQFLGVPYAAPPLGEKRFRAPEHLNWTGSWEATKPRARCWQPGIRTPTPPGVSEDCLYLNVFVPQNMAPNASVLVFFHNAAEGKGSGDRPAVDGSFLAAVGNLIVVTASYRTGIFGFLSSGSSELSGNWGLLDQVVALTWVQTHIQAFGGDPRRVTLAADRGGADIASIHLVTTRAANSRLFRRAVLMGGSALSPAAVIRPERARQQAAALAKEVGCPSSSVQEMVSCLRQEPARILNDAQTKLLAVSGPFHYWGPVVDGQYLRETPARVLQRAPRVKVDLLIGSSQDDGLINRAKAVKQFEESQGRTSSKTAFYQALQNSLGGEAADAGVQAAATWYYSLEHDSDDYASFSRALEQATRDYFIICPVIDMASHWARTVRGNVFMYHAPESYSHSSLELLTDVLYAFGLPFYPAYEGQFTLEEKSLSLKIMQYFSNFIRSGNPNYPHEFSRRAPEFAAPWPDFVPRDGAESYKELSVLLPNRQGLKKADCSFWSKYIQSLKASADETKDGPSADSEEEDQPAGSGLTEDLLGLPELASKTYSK

B1: human alpha-gal-specific IgE mAb 16D9 (antibody, V domains shown)
VH: QVQLQQWGAGLLKPSETLSLTCAVYGGTFSDYFYTWIRQPPGKGLEWIGEVSHTGRTSYIPSLKSRVTMSVDTSKNQFSLNLSSVTDADTAVYYCGRGRGYTWNDWGQGTLVTVSS
VL: QSALTQPASVSGSPGQSITISCTGTITDVGGYDYVSWYQQHPGKAPKLIIFLVNNRPSGVSDRFSGSKSGNTASLTISGLRVEDEADYYCMSYTCSNPYTCSSLYVFGTGTKVTVL
notes: the IgE constant regions are not
B1 showed an EC50 of 0.016 µg/mL.

B2: human alpha-gal-specific IgE mAb 10H8 (antibody, V domains shown)
VH: QVQLVESGGGVVQPGRSLRLSCAVSGFTFRSFGMHWVRQAPGKGLEWVAVIWHDGSNKHYADSVKGRFTISRDDSKNTLFLQMNSLRAEDTAVYYCARESEEQGNMDVWGQGTTVTVSS
VL: DVVMTQSPLSLPATLGQPASISCRSSHSLVYSNGNTYLNWFQQRPGQSPRRLFFQVSNRDSGVPDRFSGSGSVTNFTLKISRVEAEDVGVYYCMEGSHWPPYTFGQGTRLDIR
notes: as for B1
With B2 the EC50 was 0.072 µg/mL.
